Laboratory results as given in US20060272037A1.

Target: Alpha2a adrenergic receptor-cam "chameleon" (mouse)
Experiment: cell-based or functional assay

Kd of the agonist [^3H]UK14304 on membranes containing α2AAR-cam after addition of purified Go: 3.4 nM | Kd of the agonist [^3H]UK14304 on the same membranes with Go after addition of GTPγS: 9.6 nM | reduction by GTPγS of the FRET signal caused by 5 nM UK14304 in the presence of Go: > 50% | reduction by GTPγS of the binding of 5 nM [^3H]UK14304 in the presence of Go: > 50%
Substance: purified Go protein
